Experiment [1] deals with human dUTPase, enzymatically biotinylated on an N-terminal Avi-tag (human). The experiment can be described thus: BLI. Background: In BLI a coated tip is dipped into the sample, and binding shifts an interference pattern.
For experiment [2], the target named is Stl master repressor of the Staphylococcus aureus SaPIbov1 pathogenicity island (Staphylococcus aureus (SaPIbov1)). The experiment can be described thus: BLI; dimer to monomers; KDIM estimated by probing dimerization constants until the ka values of the two BLI set-ups (Stl or human dUTPase on the sensor) were close to equal.
For experiment [3] the target is unchanged. Description: BLI + other: steady state dUTPase activity assay; dimer to monomers; rough estimate of KDIM from the BLI KD and the remaining activity of 50 nM human dUTPase at 200 and 300 nM Stl, assuming no competition of substrate binding.
Experiment [4] addresses human dUTPase (human).
In experiment [5] the target is Mycobacterium tuberculosis dUTPase, enzymatically biotinylated on an N-terminal Avi-tag (Mycobacterium tuberculosis) (UniProt P9WNS5). Description: BLI.
In experiment [6] the target is Stl repressor of the Staphylococcus hominis ShoCI794_SEPI pathogenicity island (Staphylococcus hominis). The experiment can be described thus: SEC; gelfiltration of Sho-Stl (Fig. S1). A general note: SEC sorts molecules by how far they enter the pores of the column.
The target is the same in experiment [7]. The experiment can be described thus: cross-linking; chemical crosslinking of Sho-Stl in solution (Fig. S1).
Experiment [8] has the same target. Description: BLI + other: steady state dUTPase activity assay; dimer to monomers; rough estimate of KDIM from the BLI KD and the remaining activity of 50 nM human dUTPase at 200 and 300 nM Stl, assuming no competition of substrate binding.
Experiment [9] deals with Sa-Stl, enzymatically biotinylated on a C-terminal Avi-tag (Staphylococcus aureus (SaPIbov1)). Description: BLI.
For experiment [10], the target named is Sho-Stl-NDY bound to the streptavidin sensor (Staphylococcus hominis). Description: BLI.
Experiment [11] has as its target Sho-Stl, enzymatically biotinylated on a C-terminal Avi-tag (Staphylococcus hominis). The experiment can be described thus: BLI.
For experiment [12] the target is unchanged. The experiment can be described thus: BLI. The source holds these as a separate data set.

Like-named read-outs stand apart in the source and are kept apart here.

The Kd is the concentration at which binding is half-saturated. The koff is the first-order rate constant of dissociation. A high value points to a short-lived complex. The kon is the rate constant with which the complex forms. What is called stoichiometry N is the number of molecules, sites or subunits per partner or assembly.

Turning to “Stl master repressor of the Staphylococcus aureus SaPIbov1 pathogenicity island (natural protein)”, the Kd in [1] is 9750 pM; in experiment [2], 120 pM; in [3], 1 pM. The koff in [1] was determined as 0.00065 s⁻¹. For the same substance, the kon in experiment [1] worked out at 67000 M⁻¹ s⁻¹.
Take “Stl repressor of the Staphylococcus hominis ShoCI794_SEPI pathogenicity island (natural protein)”: the steady state dUTPase enzyme activity of 50 nM human dUTPase at 200 nM and 300 nM Sho-Stl (remaining activity); Sho-Stl does not inhibit the human dUTPase (% remaining activity) in [4] was 100. In experiment [5], this substance displayed a Kd of 35000 pM, an off-rate (koff) of 0.00041 s⁻¹ and a kon of 12000 M⁻¹ s⁻¹. The same substance displayed a stoichiometry N in [6] of 2. This substance came in with a stoichiometry N in [7] of 2. For the same substance, the Kd in experiment [8] was 1 pM.
Take human dUTPase (enzyme): the figures for the Kd in experiment [9], in experiment [10] and in [11] were 180 pM, 7620 pM and 4540 pM, respectively. In addition, the koff is 0.00027 s⁻¹ in [9], 0.00024 s⁻¹ in [10], 0.00023 s⁻¹ in [11] and 0.00025 s⁻¹ in experiment [12]. In addition, the kon in experiment [9] came out at 1.5e+06 M⁻¹ s⁻¹; in experiment [10] it was 31000 M⁻¹ s⁻¹; in [11], 52000 M⁻¹ s⁻¹.
In [11], “Mycobacterium tuberculosis dUTPase (from UniProt P9WNS5 1-154) (enzyme)” showed a Kd of 13 pM, a koff of 2.9e-07 s⁻¹ and a kon of 22000 M⁻¹ s⁻¹.

Source of the values: article PMC10806181.
